Assay results from patent publication US20210269521A1 (L AND L BIOPHARMA, published 2021).

Key:
[1] = molecular target: T1, human PD-1 extracellular domain protein expressed in Example 1 (tag not stated) (human, UniProt Q15116 25-170); experiment: ELISA, PD-1 coated
T1 construct: extracellular domain; also called PD-1 protein; not shown: human IgG1 Fc or his tag
Description: PD-1 expressed in Example 1 was diluted to a concentration of 1 μg/ml with PBS buffer, pH 7.4, and added to a 96-well microplate (Corning, CLS3590-100EA) at 50 μl per well, thereby incubating in an incubator at 37° C. for 2 hours. After discarding the liquid, a blocking solution of 5% skimmed milk (Shanghai Shenggong Biological Engineering Co., Ltd., A600669-0250) diluted with PBS was added at 200 μl per well, followed by incubating at 37° C. for 3 hours or 4° C. overnight (16-18 hours)) for blocking. Subsequently, the blocking solution was discarded, and the microplate was washed 5 times with PBST buffer (pH 7.4 PBS containing 0.05% tween-20). […] Subsequently, the microplate was washed 5 times with PBST, then 50 μl/well of 1:2500 diluted HRP-labeled secondary antibody (Jackson Immuno Research, 115-035-003) was added, thereby incubating at 37° C. for 1 hour. After washing the microplate 5 times with PBST, 50 μl/well TMB chromogenic substrate (KPL, 52-00-03) was added, then incubated at room temperature for 5-10 min. Finally, 50 μl/well of 1M H₂SO₄ was added to stop the reaction. […] Go microplate reader (ThermoFisher, 51119200) was used to read the absorption value at 450 nm and the EC50 based on the OD value was calculated.

[2] = molecular target: T2, human TIM-3 extracellular domain-human IgG1 Fc fusion protein (human, UniProt Q8TDQ0 22-199); experiment: ELISA; pH 5.5, 37°C 7 days
T2 construct: Made in house or bought (ACROBiosystems TM3-H5258); also called TIM-3-hFc; not shown: human IgG1 Fc

[3] = molecular target: T1, human PD-1 extracellular domain protein …; experiment: ELISA; pH 5.5, 37°C 7 days
[4] = molecular target: T2, human TIM-3 extracellular domain-human …; experiment: ELISA; pH 5.5, 40°C 5 days
[5] = molecular target: T1, human PD-1 extracellular domain protein …; experiment: ELISA; pH 5.5, 40°C 5 days
[6] = molecular target: T2, human TIM-3 extracellular domain-human …; experiment: ELISA; pH 5.5, 37°C 10 days
[7] = molecular target: T2, human TIM-3 extracellular domain-human …; experiment: ELISA; 40°C 0 day, against 0 day
[8] = molecular target: T1, human PD-1 extracellular domain protein …; experiment: ELISA; 40°C 0 day, against 0 day
[9] = molecular target: T2, human TIM-3 extracellular domain-human …; experiment: ELISA; pH 5.5, 0 day, against 0 day
[10] = molecular target: T1, human PD-1 extracellular domain protein …; experiment: ELISA; pH 5.5, 0 day, against 0 day
[11] = molecular target: T2, human TIM-3 extracellular domain-human …; experiment: ELISA; pH 5.5, 37°C 7 days, against 0 day
[12] = molecular target: T1, human PD-1 extracellular domain protein …; experiment: ELISA; pH 5.5, 37°C 7 days, against 0 day
[13] = molecular target: T2, human TIM-3 extracellular domain-human …; experiment: ELISA; pH 6.0, 37°C 7 days, against 0 day
[14] = molecular target: T1, human PD-1 extracellular domain protein …; experiment: ELISA; pH 6.0, 37°C 7 days, against 0 day
[15] = molecular target: T2, human TIM-3 extracellular domain-human …; experiment: ELISA; pH 5.5, 37°C 5 days, against 0 day
[16] = molecular target: T1, human PD-1 extracellular domain protein …; experiment: ELISA; pH 5.5, 37°C 5 days, against 0 day
[17] = molecular target: T2, human TIM-3 extracellular domain-human …; experiment: ELISA; preparation buffer, 37°C 14 days, against 0 day
[18] = molecular target: T1, human PD-1 extracellular domain protein …; experiment: as above
[19] = molecular target: T2, human TIM-3 extracellular domain-human …; experiment: ELISA; 15 mg/mL, His buffer pH 6.0, 37°C 0 day (-80°C)
[20] = molecular target: T1, human PD-1 extracellular domain protein …; experiment: as above
[21] = molecular target: T2, human TIM-3 extracellular domain-human …; experiment: ELISA; preparation buffer, 37°C 14 days (degraded sample)
[22] = molecular target: T1, human PD-1 extracellular domain protein …; experiment: as above

EC50 [1]: 0.127 nM
EC50 [2]: 0.157 nM
EC50 [3]: 0.128 nM
EC50 [4]: 0.341 nM
EC50 [5]: 0.2 nM
EC50 [6]: 0.307 nM
Fold change of EC50 [7]: 1 ratio
Fold change of EC50 [8]: 1 ratio
Fold change of EC50 [9]: 1 ratio
Fold change of EC50 [10]: 1 ratio
Fold change of EC50 [11]: 1.06 ratio
Fold change of EC50 [12]: 0.89 ratio
Fold change of EC50 [13]: 0.83 ratio
Fold change of EC50 [14]: 0.79 ratio
Fold change of EC50 [15]: 0.93 ratio
Fold change of EC50 [16]: 1.2 ratio
Fold change of EC50 [17]: 47.9 ratio
Fold change of EC50 [18]: 1.18 ratio
EC50 [19]: 0.164 nM
EC50 [20]: 0.146 nM
EC50 [21]: 14.5 nM
EC50 [22]: 0.446 nM
B1: bispecific antibody LB141 (bispecific antibody, human IgG4 S228P, kappa)
light: EIVLTQSPATLSLSPGERATLSCRASKGVSTSGYSYLHWYQQKPGQAPRLLIYLASYLESGVPARFSGSGSGTDFTLTISSLEPEDFAVYYCQHSRDLPLTFGGGTKVEIKRTVAAPSVFIFPPSDEQLKSGTASVVCLLNNFYPREAKVQWKVDNALQSGNSQESVTEQDSKDSTYSLSSTLTLSKADYEKHKVYACEVTHQGLSSPVTKSFNRGEC
heavy: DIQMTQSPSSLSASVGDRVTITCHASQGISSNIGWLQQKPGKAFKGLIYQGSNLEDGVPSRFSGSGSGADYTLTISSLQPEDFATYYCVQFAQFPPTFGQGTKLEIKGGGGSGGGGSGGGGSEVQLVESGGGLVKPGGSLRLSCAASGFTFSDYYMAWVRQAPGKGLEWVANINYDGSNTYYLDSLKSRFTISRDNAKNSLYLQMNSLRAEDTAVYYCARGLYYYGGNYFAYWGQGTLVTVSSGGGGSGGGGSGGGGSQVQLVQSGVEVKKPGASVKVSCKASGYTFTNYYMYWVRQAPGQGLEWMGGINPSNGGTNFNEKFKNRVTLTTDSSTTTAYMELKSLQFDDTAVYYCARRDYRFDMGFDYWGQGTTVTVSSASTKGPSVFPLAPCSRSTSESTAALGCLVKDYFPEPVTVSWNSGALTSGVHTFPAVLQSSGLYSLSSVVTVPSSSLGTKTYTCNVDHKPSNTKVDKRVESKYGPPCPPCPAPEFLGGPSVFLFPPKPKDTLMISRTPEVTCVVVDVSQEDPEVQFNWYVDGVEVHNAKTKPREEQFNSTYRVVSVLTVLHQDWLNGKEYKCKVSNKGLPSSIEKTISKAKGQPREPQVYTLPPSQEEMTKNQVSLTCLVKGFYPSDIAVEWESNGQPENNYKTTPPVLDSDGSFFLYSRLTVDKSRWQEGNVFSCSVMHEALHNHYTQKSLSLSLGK
notes: ab6VL-(G4S)3-ab6VH-(G4S)3-PemVH-hIgG4 with PemVL-κ
